Experimental findings from patent publication US20210000909A1 are described below.

The test addresses PDZ1/2 domain (UniProt P78352).

Sequence of PDZ1/2 domain (P78352 61-249 limits assumed): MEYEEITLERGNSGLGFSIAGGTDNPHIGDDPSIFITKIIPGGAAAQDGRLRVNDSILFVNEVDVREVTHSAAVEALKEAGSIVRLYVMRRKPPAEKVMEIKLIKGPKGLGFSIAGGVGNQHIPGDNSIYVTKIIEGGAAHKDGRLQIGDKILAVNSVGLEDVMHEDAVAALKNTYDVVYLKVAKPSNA

In turn, control chimeric peptide NA-1 displayed a Kd of 75.3 nM. This lies in the double-digit nanomolar range.

Usually Kd stands for a measure of binding affinity in units of concentration. A high value points to lower affinity.
